Source: patent US20240026407A1, “MODIFICATION OF SAPONINS” (GLAXOSMITHKLINE BIOLOGICALS SA, priority 2020, published 2024)

B1: 885 (protein, listed as Bifidobacterium indicum)
chain: MTTDKHLQAKDLDIEKEASLTSGSDAWHLQGVPDQGYPEYMITDGPYGLRKATGSDVYGSVPATCFPPTAGLASSWNPDLTYQVGQAMGEECIQEEVAVILGPGINIKRSPLGGRNFEYYSEDPVLAGHQAAGLVDGVQSKGVGTSLKHFAANNQETDRLRVSSDIDERTLREIYLPAFEYVVKHAKPWTIMCAYNKLNGVYGSENRWLLTDVLRGEWGYQGLVMSDWGAVHDRAAALRAGLNLEMPPSASDHEVVEAVRAGNLDKDQLDRMAQGVLDLIEKAKPAMSQKGYRYDVEAHDQVARQAAQESIVMLKNEDGVLPLAPGEKVALIGEFARTPRYQGGGSSHITPTKVTTALDSFKETGMDVDFVPGFTLDEAPQDQSLTDQAVKAAADADKVVLFLGLPEDAESEGFDRTDIDLPTKQLDLLRAVSQVNDQVVVVLSNGSVVSVVDWLPQAKAVLESWLLGQAGGQAVVDILTGGANPSGRLPETIPVRLEDNPSITSFPGEEGHSRYGEGIYVGYRYYDTFNKPVAFPFGFGLSYSTFEISNVRVEKTGPNAVRVDLTVTNTSGIDGAETVQVYVAPCASKVGRPSHELKSFAKVFLKAGESQEISLDLDERDFAYWSTAMNEWHVEAGTYGIEVGTSSRDLVSKLDVDLDGDGLFVRLNSNSTMEEWREDQVGGPIMKSHVEGGKVPLPNDPNTAKLFDSMPLASVITLSGGDGNSVVADMITDYQKAIEQQGLTGASRGSE
B2: 853 (protein, listed as Clostridium oryzae)
chain: MKRDIKEIVSKMTLEEKAGLCSGLDFWHTKGVERLGVPSIMVTDGPHGLRKQDTSADHLGINDSVPATCFPSGATLACSWDRSLLQKVGTALGEECQAEGVSVILGPAANIKRSPLCGRNFEYFSEDPYLSTEMAANHIKGVQSQGVGTSLKHFAVNNQEHRRLSVDAEVDERTLREIYLASFEGAVKQSQPWTVMCSYNKVNGTYASENEYLLTSILKEEWGHEGFVMSDWGAVDRRENALKAGLELEMPSSNGIGDNRIVQAVKNGELKEEVLDKAVERLLNIIFKAVDNKKEGAVYDREQHHSLARKIAGECMVLLKNEDNILPLKKEGKIAVIGGFVDKYRYQGGGSSHIKPNKLDNAAEELKKAAKGENIVFAKGFSLDNDEVDSKLMEEAKNAAASAETAVIFAGLPDRYESEGYDRSHMRIPDNQIALINAIAEVQKNIVVVLSNGSPIEMPWIGNVKGILEAYLGGEAGAGAIADILFGEVNPSGKLAESFPKKLSDNPSYLNFPGEGDTVEYKEGLFVGYRYYDKKEVETLFPFGYGLSYTTFEYKNITVDKKNITDEEKLVVKVTVKNTGKLTGKEIVQLYVRDVESSVIRPVKELKGFEKVELAAGEEKTVEFVLDKRTFAYYNVDIKDWYVESGDFEILIGSSSKDIYLKDVVNVEGTTAVKKIYTRNSTVGDVMANPQARKLTEELLSSTFGQGTDDSENLGTDMTAMMKDMTLRSILHFGGDKSKEKELDKILEMLNK
B3: 886 (protein, listed as Brachyspira suanatina)
chain: MNDNKYSQKIKELMKEMTLEEKVSLLSGKDFWSTKAIDRLKIDSVYLTDGPHGVRKQSTESDELSLQKSVSSTCFPTACCSACSFDPNIMYEMGEAISREAKANKVSVVLGPGVNIKRSPLCGRNFEYFSEDPYLAGKMASGWINGLEDNGIQSSLKHFAANNQETLRLIIDSVVDERALREIYLYAFEIAVKEAKPSTVMCAYNSVNGTFASENKYLLTDILRDEWGFDGIVVSDWGAVNDRVEALKAGLDLQMPSTNGEDDRKVYNAVKETIIDEKILDKAVERLLYFSLYSMDNIYDNFDYDKEEHHNIARKIAENSIVLLKNQDKILPAKKESKIAVIGEFAQKPRYQGNGSSLINAYKIDTAEEYFKENNIEFDYAKGYDSNSADIDNALIEEAVNISKDKDIVIIFAGLINSYESEGFDRKHLNLPENHNHLIEEISKVNKNVVVVLSIGAPVLMPWIDKVKGVLNLYLAGEAAVSAAFNIIFGVVNPSGKLAESFPLSLEDNPSYKYFPGGNKAVEYRESIFVGYRYYDKAQKNVLFPFGFGLSYTTFQFSNLIVSDANTIAGLDNIHVVFDIKNTGDVFGCEVAQVYISAPENNVFKPHKELKSFIKVFLEPGETKTVILKLNKRSFSFYNADTKQYEIESGVYTIYIGNSSRNLLLSKTMEINSINYYQKRIDNYFNFKEINISDNEFQQLLGRKLKPINIKASKPYHLNNNLSDLLDNNIAKEFYNKLLSGLNDMFKDDKTDTKKMFESMMLETPLRSLHTMSGGIITREDVENLINTLNK
B4: 814 (protein, listed as Bifidobacterium reuteri)
chain: MSETNATPTYPSVKDLTLEEKASLTSGGDAWHLQSVEHKGIPGYMITDGPHGLRKSLASNTSETDLNDSVPATCFPPAAGLSSSWNPALIRKVGEVMGEECVQEKVAVILGPGVNIKRNPLGGRCFEYWSEDPYLAGHEAVGIVEGVQSKGVGTSLKHFAANNQETDRLRVDARISQRALREIYLPAFEHIVKTAQPWTIMCSYNRINGVHSAQNHWLLTDVLRDEWGFKGIVMSDWGADHDRVASLNAGLNLEMPPSYTDDQIVYAARDGRIDPAQLDRMAQGMIDLTNKARAAMSIDGYRFDVDAHDEVARQAAVESIVMLKNEDAILPIDPAGGKKLAVIGEFARTPRYQGGGSSHITPTKMTSFLDALDERGIKADFAPGFTLDLAPADSALTLEAVETARDADVVLMFLGLPEEAESEGFDRTTLDIPAKQIELLRQVAAENPNVVVVLSNGSVVTVHPWADASKSILESWLLGQAGGRALADVVFGEASPSGKLAQSIPMDINDDPSMLNWPGEEGHVDYGEGVFVGYRYYDTYNKAVDYPFGYGLSYATFEIGDVAVAKTGANTASVTATVTNTSDTPAAETVQVYVAPGKADVARPVHELKGFEKVFLGAGESKTVTIELNERAFAYWSEKYNDWHVEAGEYTVEVGVSSRDIAASIAVTLDGDGKSMPLNEWSTFGEWSADPVGAKVVEAVGAAGERGDMPKLPDNDMMRLFLNSMPINSLPTLLGESGKDLTAFMLDEYAALTK
B5: 838 (protein)
chain: MSEHTYPSVKDLTLEEKASLTSGGDAWHLQGVEAKGIPGYMITDGPHGLRKSLATSTGETDLDDSVPATCFPPAAGLSSSWNPSLVRKVGEAMGEECIQEKVAVILGPGVNIKRNPLGGRCFEYWSEDPYLAGHEAVGIVEGVQSKGVGTSLKHFAVNNQETDRLRVDARVSQRALREIYLPAFEHIVKTAQPWTIMCSYNRVNGVHSAQNRWLLTDVLRDEWGFKGIVMSDWGADHDRVASVNAGLNLEMPPSGTDDEIVYAARDGRIDPAQLDRMAQGMIDLTDKARAAMSIDGYRFDVDAHDEVAHQAAVESMVLLKNEDAILPLKKDAKIAVIGEFARTPRYQGGGSSHITPTKMTSFLDTLAERGIKADFAPGFTLDLDPADSALELEAVETARDADVALLFLGLPEAAESEGFDRETLDMPAKQIELLAKVAAVNPNVAVVLSNGSVVSVAPWAGNAKGILESWLLGQAGGPALADVIFGEASPSGKLAQSIPLDINDDPSMLNWPGEEGHVDYGEGVFVGYRYYDTYDVAVDYPFGYGLSYASFEISDVHAEKTGANTASVTATVANVSDVDGAETVQVYVAPGKAEVARPSHELKGFAKVFLKAGESKTVTFDLDGRAFAYWSEKYGDWHIEAGAYGIEVGTSSRDIAATATVELEGDGKSLPLDEWSTYGEWEADPVGARVVAAVEAAGESGTLPKLPDNTMMRIFLKSMPINSMPMLMSDGGRRITAFMLDEYAKLTK
modifications: Bifidobacterium stellenboschense
B6: 842 (protein, listed as Nonomuraea sp.)
chain: MNLQDKASLLSGRDFWSTKPVGDVPAAVLSDGPHGVRRQTGEADHVGIHESLPATCFPPAVAVGSSWDPAVAGRLAAAVAVEARALDVQINLGPGVNIKRSPLCGRNFEYYSEDPLLTGVLAAAHVEALQAGGVGASVKHFAANNQETGRMRVSAEIDERTLREIYLPAFERVVKHARPATVMAAYNKVNGVYASQHPWLLTRVLREEWGFDGVVVSDWGAVNDRVAALKAGLDLEMPGNPANDAMIVQAVRDGELDEAVVDRSVARVRAMVRAWRPEPAAFDADAHHALARELAAECAVLLKNDGDTLPIRADVQTIAVLGPFATEPRFQGGGSSHVTPTRVDSPLEEIRRLAGDRVVTADPDDADLAIVFAGPADLDESEGYDRAGLDLPAEQVELIRATAAAARRTVVVLSNGGVVSLEGWHDEVDAILEGWLLGQAGGGAIADLLFGVAAPSGRLAETIPMRLQDTASYLNFPGEQDVVRYGEGVMVGYRYHETAGRPVRYPFGHGLTYTTFAVSDLTVRVTGDDSARVSVTVANTGRRYGKHVVQLYVATQAGPVRRPARELRAFTKVGLEPGRSTTVTFDLDARAFAYWDVKEGRWLVAPGDYTVQIGENASAVVAEETIELAGEVIARELTLDSSVGEWFAHPQVGPVLMRHVAATMTEEQRAAAAEHQDLLRMIESLPMHQFLSPMGVRLPDQAVREMMELSRRPQ

Experiments:
Format in all cases: biochemical, Quillaja saponaria
[1] = Experiment 5-1: screening of additional glucosidases for deglycosylation with purified QS-18 (0.04 mg/ml) at pH 7.5 and 30 deg C; conditions: pH 7.5, 30 degrees C, 18 hours, LCMS/MS
Protocol: The 94 additional genes, together with positive control (DNA encoding SEQ ID No. 262) and negative control, were transformed, expressed, lysed and reacted in the same manner as described above for Experiment 4-1, except the reaction was incubated at 30 degrees C. for 18 hours.
Samples were analysed by LCMS/MS according to the procedure in Experiment 4-1.

[2] = Experiment 5-3: screening of additional glucosidases for deglycosylation with QS-18 in treated bark extract (80%) at pH 6 and 35 deg C; conditions: TBE 80% (QS-21 approx. 4 g/L), pH 6, 35 deg C; UV HPLC
Protocol: Experiment 5-1 was repeated, replacing CBE with Treated Bark Extract (TBE) at pH 6. TBE was prepared from CBE by PVPP treatment and concentration, to provide TBE with a QS-21 concentration of approximately 4 g/L. TBE was adjusted to pH 6 by dropwise addition of 2M NaOH with stirring.

[3] = Experiment 5-2: screening of additional glucosidases for deglycosylation with QS-18 in crude bark extract (80%) at pH 6 and 35 deg C; conditions: CBE 80%, pH 6, 35 deg C, 18 hours; UV HPLC
Protocol: A plate was lysed at pH 6 as described in Experiment 4-2. 40 uL of clarified lysate was transferred to a reaction plate
The pH of CBE was adjusted to pH 6 by dropwise addition of 2M NaOH with stirring. 160 uL of pH 6 CBE was added to each well of the reaction plate. The reaction plate was sealed and incubated at 35 deg C. with shaking for 18 hours.
The reaction plate was quenched by adding 200 uL of MeCN (2% acetic acid (AcOH), 1 mg/mL hexanophenone) to each well of the plates. The quenched reaction plate was re-sealed and incubated at 20 deg C. with shaking for 10 min. The reaction plate was then centrifuged (10 min, 4 degC).
200 uL was transferred from each well of the quenched plate to the corresponding wells of a fresh 96 well plate and sealed. The plate was analysed by UV HPLC with the method of Experiment 4-4.

Row | Molecule | Experiment 5-1 % conv [1] | Experiment 5-3 % conv [2] | Experiment 5-2 % conv [3]
1 | B1 | 54.8% | <0.5% | <0.5%
2 | B2 | 67.7% | 2.5% | <0.5%
3 | B3 | 55.5% | <0.5% | <0.5%
4 | B4 | 58.4% | <0.5% | <0.5%
5 | B5 | 53.4% | <0.5% | <0.5%
6 | B6 | 64.0% | <0.5% | <0.5%
